# Assay results published in PMC11798926 (2024).
# B1: myc-tagged SynDIG4 (wild type) [rat] / HA-tagged μ2 AP subunit [not stated] (parent complex)
# chain 1: MSSEKSGLPDSVPHTSPPPYNAPQPPAEPPIPPPQTAPSSHHHHHHHYHQSGTATLPRLGAGGLASAAAGAQRGPSSSATLPRPPHHAPPGPAAGAPPPGCATLPRMPPDPYLQETRFEGPLPPPPPAAAAPPPPAPAPTAQAPGFVVPTHAGAVGTLPLGGYVAPGYPLQLQPCTAYVPVYPVGTPYASGTPGGPGVTSTLPPPPQGPGLALLEPRRPPHDYMPIAVLTTICCFWPTGIIAIFKAVQVRTALARGDLVSAEIASREARNFSFISLAVGIAAMVLCTILTVVIIIAAQHHENYWDP
# chain 2: MIGGLFIYNHKGEVLISRVYRDDIGRNAVDAFRVNVIHARQQVRSPVTNIARTSFFHVKRSNIWLAAVTKQNVNAAMVFEFLYKMCDVMAAYFGKISEENIKNNFVLIYELLDEILDFGYPQNSETGALKTFITQQGIKSQHQTKEEQSQITSQVTGQIGWRREGIKYRRNELFLDVLESVNLLMSPQGQVLSAHVSGRVVMKSYLSGMPECKFGMNDKIVIEKQGKGTADETSKSGKQSIAIDDCTFHQCVRLSKFDSERSISFIPPDGEFELMRYRTTKDIILPFRVIPLVREVGRTKLEVKVVIKSNFKPSLLAQKIEVRIPTPLNTSGVQVICMKGKAKYKASENAIVWKIKRMAGMKESQISAEIELLPTNDKKKWARPPISMNFEVPFAPSGLKVRYLKVFEPKLNYSDHDVIKWVRYIGRSGIYETRC
# Variants of: B1
# Assay: co-immunoprecipitation (IP: HA, blot: myc), quantified; HEK293T cells; second bar chart of panel D (SD4 vs AMPA); parent: 100; read off a plot
row,percent of parent,Variant
1,~65 %SD4,"chain 1 Y223A, chain 1 I226A"
